{
  "source": "paper PMC6993569",
  "key": {"[1]": {"molecular_target": "BBLF1-Flag (Epstein-Barr virus)"}, "[2]": {"molecular_target": "SDE-BBLF1-Flag (Epstein-Barr virus)"}},
  "data": [
    {"binder": "BGLF2-GFP (natural protein) MASAANSSREQLRKFLNKECLWVLSDASTPQMKVYTATTAVSAVYVPQIAGPPKTYMNVTLIVLKPKKKPTYVTVYINGTLATVARPEVLFTKAVQGPHSLTLMYFGVFSDAVGEAVPVEIRGNPVVTCTDLTTAHVFTTSTAVKTVEELQDITPSEIIPLGRGGAWYAEGALYMFFVNMDMLMCCPNMPTFPSLTHFINLLTRCDNGECVTCYGAGAHVNILRGWTEDDSPGTSGTCPCLLPCTALNNDYVPITGHRALLGLMFKPEDAPFVVGLRFNPPKMHPDMSRVLQGVLANGKEVPCTAQPWTLLRFSDLYSRAMLYNCQVLKRQVLHSY", "values": [
      {"measurement": "recruitment of BGLF2-GFP to the TGN (colocalisation with TGN46) in cotransfected A7 cells, confocal microscopy (% of transfected cells)", "setting": "[1]", "result": 70},
      {"measurement": "recruitment of BGLF2-GFP to the TGN (colocalisation with TGN46) in cotransfected A7 cells, confocal microscopy (% of transfected cells)", "setting": "[2]", "result": 70}
    ]}
  ]
}
